Measurements as given in publication PMC5524640, “Evasion of immunosurveillance by genomic alterations of PPARγ/RXRα in bladder cancer” (Nature Communications, 2017).
Where a chain is given by its changes, count along the chain named. In names and notes the source's numbering stands. Values belong to the binder of their own block, whether it stands above or below them.

What was measured:
[1] = target: the molecule itself; experiment: SEC; 16/60 Sephacryl S-300 in 25 mM Tris-HCl pH 8.0, 100 mM NaCl, 10% glycerol, 1 mM TCEP; no exogenous ligand; tetramer and monomer peaks
His-TEV-PPARγ (234-505) = target: T1, His-TEV-PPARγ (234-505) (human, UniProt P37231 234-505); experiment: SEC; analytical, 10/300 Superdex 200; equivalent molar volumes loaded; heterodimer formed by mixing the two proteins at a 1:1 molar ratio; no ligand; details: both partners purified
T1 construct: The methods name no species for the bacterial construct; No tag cleavage is described for this preparation; also called PPARg; source: E. coli, purified (Ni-NTA, size exclusion chromatography)
T1 sequence (looked up): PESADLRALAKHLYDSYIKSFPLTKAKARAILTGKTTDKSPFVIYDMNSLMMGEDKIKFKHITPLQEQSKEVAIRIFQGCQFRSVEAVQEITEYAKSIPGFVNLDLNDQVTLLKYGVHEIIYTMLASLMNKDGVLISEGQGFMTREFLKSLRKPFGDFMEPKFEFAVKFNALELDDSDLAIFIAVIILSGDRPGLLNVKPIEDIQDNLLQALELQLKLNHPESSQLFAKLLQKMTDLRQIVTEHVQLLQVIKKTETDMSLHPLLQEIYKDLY

[2] = target: T2, His-TEV-RXRα-WT (223-462) (Homo sapiens (Human), UniProt P19793); experiment: SPR; monomer fraction of RXRα WT used (apo tetramer is inactive)
T2 chain: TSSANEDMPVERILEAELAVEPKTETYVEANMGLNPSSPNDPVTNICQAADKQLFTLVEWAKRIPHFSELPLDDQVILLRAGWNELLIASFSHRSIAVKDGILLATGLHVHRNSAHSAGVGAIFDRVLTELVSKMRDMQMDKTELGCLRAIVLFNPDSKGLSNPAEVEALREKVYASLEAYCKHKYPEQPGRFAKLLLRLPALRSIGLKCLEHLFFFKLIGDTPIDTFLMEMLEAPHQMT

[3] = target: T3, His-TEV-RXRα-S427F (223-462) (Homo sapiens (Human), UniProt P19793); experiment: SPR (also analytical size exclusion chromatography); S427F mutant of RXRα; binding seen without added ligand
T3 chain: T2 chain with S205F

B1: His-TEV-RXRα-WT (223-462) (domain or fragment, human, UniProt P19793 223-462, looked up)
chain: T2 chain
stoichiometry N [1]: 4

binding result (His-TEV-PPARγ (234-505)): binds
B2: His-TEV-RXRα-S427F (223-462) (domain or fragment, human, UniProt P19793 223-462, looked up)
chain: T2 chain with S205F
notes: S427F is a recurrent mutation found in patients' tumours; No tag cleavage is described for this preparation; also called the mutant; source: E. coli, purified (Ni-NTA, size exclusion chromatography)

binding result [2]: binds | binding result [3]: binds
B3: His-TEV-PPARγ (234-505) (protein)
chain: T1 sequence (looked up)
